Experiment in all cases: cell-based or functional assay
For experiment [1], the target named is wildtype human rod opsin (human) (UniProt P08100).
The target of experiment [2] is phosphonull Rod opsin 6A mutant (human) (UniProt P08100).
Experiment [3] deals with wildtype human rod opsin (human) (UniProt P08100). The source holds these as a separate data set.

On to “wildtype human visual arrestin (from UniProt P10523 1-405)”, for which, in experiment [1], the Response decay (best fit Toff) of the light-driven BRET G protein (Go) activation response in Hek293T cells, arrestin co-expressed without GRK1, relative to RodWT alone (% of RodWT level) was determined as 90; the Response decay rate of the BRET G protein activation light response, arrestin and GRK1 both co-expressed with RodWT, relative to RodWT alone is 2.5 x faster; the Toff of the BRET G protein activation light response, arrestin and GRK1 both co-expressed with RodWT (RodWT alone 166.16) turned out to be 65.6 s.

B1: human rhodopsin kinase (G protein receptor kinase 1) (enzyme, UniProt Q15835 1-560, looked up)
chain: MDFGSLETVVANSAFIAARGSFDGSSSQPSRDKKYLAKLKLPPLSKCESLRDSLSLEFESVCLEQPIGKKLFQQFLQSAEKHLPALELWKDIEDYDTADNDLQPQKAQTILAQYLDPQAKLFCSFLDEGIVAKFKEGPVEIQDGLFQPLLQATLAHLGQAPFQEYLGSLYFLRFLQWKWLEAQPMGEDWFLDFRVLGKGGFGEVSACQMKATGKLYACKKLNKKRLKKRKGYQGAMVEKKILMKVHSRFIVSLAYAFETKADLCLVMTIMNGGDIRYHIYNVNEENPGFPEPRALFYTAQIICGLEHLHQRRIVYRDLKPENVLLDNDGNVRISDLGLAVELLDGQSKTKGYAGTPGFMAPELLQGEEYDFSVDYFALGVTLYEMIAARGPFRARGEKVENKELKHRIISEPVKYPDKFSQASKDFCEALLEKDPEKRLGFRDETCDKLRAHPLFKDLNWRQLEAGMLMPPFIPDSKTVYAKDIQDVGAFSTVKGVAFDKTDTEFFQEFATGNCPIPWQEEMIETGIFGELNVWRSDGQMPDDMKGISGGSSSSSKSGMC
Turning to B1, the Response amplitude (A) of the BRET G protein activation light response, GRK1 only co-expressed with Rod6A (scaling factor A) in experiment [2] stood at 0.42. Besides, the Response amplitude (A) of the BRET G protein activation light response, GRK1 (or GRK1+Arr) co-expressed with RodWT (% of RodWT amplitude) in experiment [3] was determined as 25.

For the origin of these results see patent US20230165938A1.
